Results published in US20250129169A1 (Stanford University, published 2025).

Assays:
Human IL-2Rβ ECD [1] = molecular target: T1, Human IL-2Rβ ECD (human, UniProt P14784 27-240, biotinylated (site not stated)); test: SPR, steady-state binding affinity (drawn table)
T1 construct: extracellular domain; Biotinylated and held on a streptavidin chip for SPR; also called biotinylated human IL-2Rβ ECD
T1 sequence (looked up): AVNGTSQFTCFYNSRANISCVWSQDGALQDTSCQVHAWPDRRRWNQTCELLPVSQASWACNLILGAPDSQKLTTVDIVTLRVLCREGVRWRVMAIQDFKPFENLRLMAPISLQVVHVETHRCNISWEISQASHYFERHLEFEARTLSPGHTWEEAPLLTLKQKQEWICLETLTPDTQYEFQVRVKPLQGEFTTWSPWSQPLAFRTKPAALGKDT
Experimental: (§1) FIGS. 2A-2H show data on SPR validation of IL-2Rβ- and γc-VHHs and agonist screening in YT-1 cells. (A) Biotinylated human IL-2Rβ ECD was immobilized on a streptavidin (SA) sensor chip, and varying concentrations of IL-2Rβ VHH were applied to determine binding parameters using SPR. Sensorgrams are shown on the left, and steady state binding is plotted on the right. Binding affinities (KD) were determined by fitting to steady state response values. (B) Biotinylated human γC ECD was immobilized on a SA chip, and varying concentrations of γc VHH were flowed over the chip to determine binding. […] (C) Steady-state binding affinities between VHH/scFv and IL-2R, as determined by SPR. Values for scFv affinities are derived from patent US20160367664A1 (Wang et al., 2016). (D) Table of pSTAT5 Eₘₐₓ values for the indicated VHH pairings. (E) Tuning IL-2 activity via generation of acid-base VHH zipper pairings. (F) Tuning IL-2 activity via generation of 2:1 β:γc or γc:β stoichiometries. VHH binding modules are linked together in a tripartite (β-γc-β or γc-β-γc) manner. Graph axes are represented as in (E). (G) Dose-response relationship of pSTAT5 geometric mean flurorescence intensities (gMFI) of selected agonists. (H) Corresponding histograms showing STAT5 activity in YT-1 cells treated with human IL-2 vs. IL-2 surrogate agonists at saturating concentration.

Human IL-2Rβ ECD [2] = molecular target: T1, Human IL-2Rβ ECD; test: SPR; biotinylated human IL-2Rβ ECD on streptavidin chip, VHH as analyte; KD from fit to steady-state responses [Cont.]
Experimental: as §1

human IL-10Rβ ECD = molecular target: T2, human IL-10Rβ ECD (human, UniProt Q08334 20-220); test: SPR, kinetic fit, immobilized human IL-10Rβ ECD
T2 construct: extracellular domain; Immobilized for SPR under the same conditions as for the IL-2 specific VHHs
T2 sequence (looked up): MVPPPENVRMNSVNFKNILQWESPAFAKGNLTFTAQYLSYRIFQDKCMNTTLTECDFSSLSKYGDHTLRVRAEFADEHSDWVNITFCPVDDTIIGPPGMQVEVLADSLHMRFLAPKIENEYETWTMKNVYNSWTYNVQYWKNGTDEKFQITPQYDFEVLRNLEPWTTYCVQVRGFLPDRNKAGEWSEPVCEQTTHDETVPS
Experimental: (A) SPR sensorgrams displaying dose-dependent binding of IL-10Rβ VHHs to immobilized human IL-10Rβ ECD. SPR experiments were performed using the same conditions as for IL-2 specific VHHs. Binding constants were determined from kinetic fitting and summarized in (B).

human IFNAR2 ECD = molecular target: T3, human IFNAR2 ECD (human, UniProt P48551 27-243); test: SPR; human IFNAR2 ECD immobilized, VHH as analyte; binding constants from kinetic fits
T3 construct: extracellular domain; Immobilized for SPR under the same conditions as for the IL-2 specific VHHs
T3 sequence (looked up): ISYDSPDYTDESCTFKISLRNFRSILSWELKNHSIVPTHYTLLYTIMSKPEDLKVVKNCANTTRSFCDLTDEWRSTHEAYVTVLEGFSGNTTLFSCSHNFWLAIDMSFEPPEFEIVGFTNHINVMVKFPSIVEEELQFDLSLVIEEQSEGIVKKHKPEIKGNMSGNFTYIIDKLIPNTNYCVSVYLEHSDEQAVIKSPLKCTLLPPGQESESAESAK
Experimental: FIGS. 8A-8D depict signaling kinetics and gene expression driven by Type I Interferon surrogate ligands. (A) SPR sensorgrams displaying dose-dependent binding of IFNAR2 VHHs to immobilized human IFNAR2 ECD. SPR experiments were performed using the same conditions as for IL-2 specific VHHs. Binding constants were determined from kinetic fitting and summarized in (B). (C) qRT-PCR analysis of mRNA level of indicated genes in human primary bronchial/tracheal epithelial cells treated with 10 nM surrogate ligands or IFNω for 8 hr. (D) qRT-PCR analysis of mRNA level of indicated genes in PBMCs treated with 10 nM surrogate ligands or IFNω for 8 hr.

[3] = molecular target: IL-2Rβ/γc receptor heterodimer on cells (human) (UniProt P14784); test: cell-based or functional assay
Sequence of IL-2Rβ/γc receptor heterodimer on cells (human) (P31785 23-369, one chain of several): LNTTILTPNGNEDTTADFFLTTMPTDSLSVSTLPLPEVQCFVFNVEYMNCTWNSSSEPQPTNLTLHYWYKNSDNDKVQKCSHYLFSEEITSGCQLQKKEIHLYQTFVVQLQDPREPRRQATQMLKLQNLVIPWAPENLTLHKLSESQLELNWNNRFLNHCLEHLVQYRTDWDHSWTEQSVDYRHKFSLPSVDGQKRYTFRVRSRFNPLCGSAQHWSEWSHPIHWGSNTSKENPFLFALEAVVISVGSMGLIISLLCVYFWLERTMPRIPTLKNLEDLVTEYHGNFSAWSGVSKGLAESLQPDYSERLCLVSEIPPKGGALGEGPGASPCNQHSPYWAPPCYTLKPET

B1: 2Rβ-VHH3 (VHH)
VHH: QVQLQESGGGSVQAGGSLRLSCTASGFTFDDEDMGWYRQAPGNECELVSSIGSLGRRYYADSVKDRFAISQDNAKNTVYLQMNSLKPEDTAVYYCAATKGGSWLDSILASCQGAFGYWGQGTQVTVSS
- Kd (Human IL-2Rβ ECD [1]): 20 nM
- Kd (Human IL-2Rβ ECD [2]): 20.2 nM

B2: 10Rβ-VHH1 (VHH)
VHH: QVQLQESGGGSVQAGGSLRLSCAARYTYSTYCMGWFRQAPGKEREGVAAIDSDGSTSYADSVKGRFTISKDNAKNTLYLQMNSLKPEDTAMYYCASDADCDLGGSWSTRGQGTQVTVSS
notes: member of the group m13; also called VHH1 (IL-10Rβ VHH)
- Kd (human IL-10Rβ ECD): 1.6 nM

B3: 10Rβ-VHH2 (VHH)
VHH: QVQLQESGGGSVQTGGSLRLSCAASQVNMNSVGWFRQAPGKAREGVATISPSGGATYYTDSVKGRFTISRDNAKNTVYLQMNSLNAEDTAMYYCAADGGRDWWLLRPQTFSYWGQGTQVTVSS
notes: member of the group m13; also called VHH2 (IL-10Rβ VHH)
- Kd (human IL-10Rβ ECD): 2.2 nM

B4: IFNAR2-VHH1 (VHH)
VHH: QVQLQESGGGSVQPGGSLRLSCAASGFTFSNYIMSWVRQAPGKGLEWVSAISGGGNTYYTDSVKGRFTISRDNAKNTLYLQLNSLKTEDTAMYYCAQNWWVAGRSPNPPGQGTQVTVSS
notes: Member of the group m12 (IFNAR2 VHHs); also called VHH1 (IFNAR2 VHH)
- Kd (human IFNAR2 ECD): 0.31 nM

B5: IFNAR2-VHH3 (VHH)
VHH: QVQLQESGGGLVQPGGSLRLSCAASEFTFSEYSMKWVRQPPGKGLEWVSTISPSGGTTRYAESVKGRFTISRDNAKNTLYLQLNSLKTEDTAMYYCSVADWSVTQRRGQGTQVTVSS
notes: Member of the group m12 (IFNAR2 VHHs); also called VHH3 (IFNAR2 VHH)
- Kd (human IFNAR2 ECD): 0.21 nM

B6: 10Rβ-VHH3 (VHH)
VHH: QVQLQESGGGSVQVGGSLRLSCAASGYTYSNYCMGWFRQAPGKEREGVATIDGDGSTRYADSVKGRFTISKDNAKNTLYLQMHSLKPEDTAMYYCAADFALCDPTVVAHTDFGYWGQGTQVTVSS
notes: member of the group m13; also called VHH3 (IL-10Rβ VHH)
- Kd (human IL-10Rβ ECD): 2.5 nM

B7: IFNAR2-VHH2 (VHH)
VHH: QVQLQESGGGLVQPGGSLRLSCAASGFTFSDYIMTWVRQAPGKGLEWVSSINNGGRSTYYADSVKGRFTISRDNAKNTLYLQLNSLKIEDTAMYYCARDVTCWGARTGCRVSGGTQVTVSS
notes: Member of the group m12 (IFNAR2 VHHs); also called VHH2 (IFNAR2 VHH)
- Kd (human IFNAR2 ECD): 0.78 nM

B8: 10Rβ-VHH5 (VHH)
VHH: QVQLQESGGGSVQAGGSLRLSCAASGYTYSSYCMGWFRQAPGKEREGVAAIDSDGSTSYADSVKGRFTISKDNAKNTLYLQMNSLKPEDTAMYYCAAEPWCTSQGRGRESAEFGYWGQGTQVTVSS
notes: member of the group m13; also called VHH5 (IL-10Rβ VHH)
- Kd (human IL-10Rβ ECD): 1.7 nM

B9: 2Rβ-VHH4 (VHH)
VHH: QVQLQESGGGSVQAGGSLRLSCAASGSTSCSSVMRWYRQAPGKEREFVSSINSDRRTVYADSVKGRFTISQDNAKSTLYLQMNSLKAEDTATYYCQRELYGDSWCQGNYWGQGTQVTVSS
- Kd (Human IL-2Rβ ECD [1]): 123 nM
- Kd (Human IL-2Rβ ECD [2]): 123 nM

B10: IFNAR2-VHH5 (VHH)
VHH: QVQLQESGGGLVQPGGSLTLSCAASGFTFRNHIMSWVRQAPGKGLEWVSAISSGGGNTYYADSVKGRFTISRDNAKSTLYLQLNSLKTEDTAMYYCTKDWARPPYSDFLAPQAQGTQVTVSS
notes: Member of the group m12 (IFNAR2 VHHs); also called VHH5 (IFNAR2 VHH)
- Kd (human IFNAR2 ECD): 0.23 nM

B11: IFNAR2-VHH10 (VHH)
VHH: QVQLQESGGGLVQPGGSLRLSCAASGFTFSNHIMSWVRQAPGKGLEWVSAINSGGGSTYYRDSVKGRFTISRDNAKNTLYLQLNSLKTEDTAMYYCAKDWWRYGSDKPPGQGTQVTVSS
notes: Member of the group m12 (IFNAR2 VHHs); also called VHH10 (IFNAR2 VHH)
- Kd (human IFNAR2 ECD): 0.33 nM

B12: 10Rβ-VHH4 (VHH)
VHH: QVQLQESGGGSVQAGGSLRLSCAASGYTYSSYCMGWFRQASGKEREGVATIDSDGSTRYADSVKGRFTISKDNAKNTLYLQMNSLKPEDTAMYYCAADLADCAPSIYSDYDVAHWGQGTQVTVSS
notes: member of the group m13; also called VHH4 (IL-10Rβ VHH)
- Kd (human IL-10Rβ ECD): 2.2 nM

B13: MY193-R (bispecific antibody, not shown: small tags and cut ends)
chain: QVQLQESGPGLVKPSETLSLTCTVSGGSISSSSYYWGWIRQPPGKGLEWIGSIYYSGSTYYNPSLKSRVTISVDTSKNQFSLKLSSVTAADTAVYYCAGDILTGYALDYWGQGTLVTVSSGGGGSGGGGSGGGGSSYELTQPPSMSVSPGQTARITCSGDALPKQFAFWYQQKPGQAPVLVIYKDTERPSGIPERFSGSSSGTTVTLTITGVQAEDEADYYCQSPDSSGTVEVFGGGTKLTVLGGGGTSASQVQLQESGGGSVQAGGSLRLSCTASGFTFDDEDMGWYRQAPGNECELVSSIGSLGRRYYADSVKDRFAISQDNAKNTVYLQMNSLKPEDTAVYYCAATKGGSWLDSILASCQGAFGYWGQGTQVTVSS
- pSTAT1/3 activity in NK cells, relative to hIL-2 [3]: 3%
- pSTAT1 or pSTAT3 activity in CD8+ T cells, relative to hIL-2 [3]: 25%
- pSTAT5 activity in CD8+ T cells, relative to hIL-2 [3]: 90%
- pSTAT5 activity in NK cells, relative to hIL-2 [3]: 45%

B14: IFNAR2-VHH8 (VHH)
VHH: QVQLQESGGGSVQAGGSLRLSCAASGFYGTYSMGWFRQAPGKEREGVAHIESDGSTRYADSMKGRFTVSKDNAKKILYLQMNSLKPEDTAVYYCAADPRPYFRTWYERARYGGQGTQVTVSS
notes: Member of the group m12 (IFNAR2 VHHs); also called VHH8 (IFNAR2 VHH)
- Kd (human IFNAR2 ECD): 0.54 nM

B15: 2Rβ-VHH1 (VHH)
VHH: QVQLQESGGGSVQAGGSLRLSCVTSGYTYSSANMAWFRQAPGKEREGVAIITPSGRATTYADSVKGRFTISRDNAANTLYLQMNSLKPEDTAMYYCAADTPPYSGLWYAERTYNYWGQGTQVTVSS
notes: also called IL-2Rβ-specific VHH clone 1
- Kd (Human IL-2Rβ ECD [1]): 11 nM
- Kd (Human IL-2Rβ ECD [2]): 10.9 nM

B16: 2Rβ-VHH6 (VHH)
VHH: QVQLQESGGGSVQAGGSLRLSCAASSYTISSVCMGWFRQAPGKEREGVAGIAPDGSTGYGDSVKGRFTISKDNAKNTLYLQMNSLKPEDTAMYYCAAASPGRCFLPRTALEPALYYNWGQGTQVTVSS
notes: also called IL-2Rβ-VHH6
- Kd (Human IL-2Rβ ECD [1]): 25 nM
- Kd (Human IL-2Rβ ECD [2]): 25 nM

B17: MY173-F (bispecific antibody, not shown: small tags and cut ends)
chain: QVQLQESGGGSVQAGGSLRLSCAASSYTISSVCMGWFRQAPGKEREGVAGIAPDGSTGYGDSVKGRFTISKDNAKNTLYLQMNSLKPEDTAMYYCAAASPGRCFLPRTALEPALYYNWGQGTQVTVSSSFQVQLQESGGGSVQAGGSLRLSCAASGYTYRDYYMGWFRQAPGREREGVASIYTRGSREGSTRYSSSVEGRFTITLDTAKNTLYLQMNSLKPEDTAMYYCAADDRTWLPRVQLGGPRENEYNYWGQGTQVTVSS
- pS6 activity in CD8+ T and NK cells, relative to IL-2 [3]: 50%
- pSTAT5 activity in CD8+ T and NK cells, relative to IL-2 [3]: 70 to 100%
